B1: 031417-N06 (protein)
chain: MALPVTALLLPLALLLHAARPQIVLSQSPAILSASPGEKVTMTCRASSSVSYMHWYQQKPGSSPKPWIYATSNLASGVPARFSGSGSGTSYSFTISRVEAEDAATYYCQQWTFNPPTFGGGTRLEIKRTVAALEIQNPDPAVYQLRDSKSSDKSVCLFTDFDSQTNVSQSKDSDVYITDKCVLDMRSMDFKSNSAVAWSNKSDFACANAFNNSIIPEDTFFPSSDVPCDVKLVEKSFETDTNLNFQNLSVIGFRILLLKVAGFNLLMTLRLWSSRAKRSGSGVKQTLNFDLLKLAGDVESNPGPTSMDWIWRILFLVGAATGAHSFEQAYLQQSGAELVRPGASVKMSCKASGYTFTSYNMHWVKQTPRQGLEWIGGIYPGNGDTSYNQKFKGKATLTVGKSSSTAYMQLSSLTSEDSAVYFCARYDYNYAMDYWGQGTSVTVSSASTREDLKNVFPPEVAVFEPSKAEIAHTQKATLVCLATGFYPDHVELSWWVNGKEVHSGVCTDPQPLKEQPALNDSRYCLSSRLRVSATFWQNPRNHFRCQVQFYGLSENDEWTQDRAKPVTQIVSAEAWGRADCGITSASYHQGVLSATILYEILLGKATLYAVLVSALVLMAMVKRKDSRGRAKRSGSGATNFSLLKQAGDVEENPGPSRGHMTEYKPTVRLATRDDVPRAVRTLAAAFADYPATRHTVDPDRHIERVTELQELFLTRVGLDIGKVWVADDGAAVAVWTTPESVEAGAVFAEIGPRMAELSGSRLAAQQQMEGLLAPHRPKEPAWFLATVGVSPDHQGKGLGSAVVLPGVEAAERAGVPAFLETSAPRNLPFYERLGFTVTADVEVPEGPRTWCMTRKPGA
B2: 012617-S04 (protein)
chain: MALPVTALLLPLALLLHAARPLEGKPIPNPLLGLDSTGSGEDLKNVFPPEVAVFEPSKAEIAHTQKATLVCLATGFYPDHVELSWWVNGKEVHSGVCTDPQPLKEQPALNDSRYCLSSRLRVSATFWQNPRNHFRCQVQFYGLSENDEWTQDRAKPVTQIVSAEAWGRADCGITSASYHQGVLSATILYEILLGKATLYAVLVSALVLMAMVKRKDSRGRAKRSGSGATNFSLLKQAGDVEENPGPTSMALPVTALLLPLALLLHAARPDIQMTQSPSSLSASVGDRVTITCRASSSVSYMHWYQQKPGKAPKPLIYAPSNLASGVPSRFSGSGSGTDFTLTISSLQPEDFATYYCQQWSFNPPTFGQGTKVEIKRGGGGSGGGGSGGGGSEVQLVESGGGLVQPGGSLRLSCAASGYTFTSYNMHWVRQAPGKGLEWVGAIYPGNGDTSYNQKFKGRFTISVDKSKNTLYLQMNSLRAEDTAVYYCARVVYYSNSYWYFDVWGQGTLVTVSSTREQKLISEEDGSGIQNPDPAVYQLRDSKSSDKSVCLFTDFDSQTNVSQSKDSDVYITDKCVLDMRSMDFKSNSAVAWSNKSDFACANAFNNSIIPEDTFFPSSDVPCDVKLVEKSFETDTNLNFQNLSVIGFRILLLKVAGFNLLMTLRLWSSRAKRSGSGVKQTLNFDLLKLAGDVESNPGPSRGHMTEYKPTVRLATRDDVPRAVRTLAAAFADYPATRHTVDPDRHIERVTELQELFLTRVGLDIGKVWVADDGAAVAVWTTPESVEAGAVFAEIGPRMAELSGSRLAAQQQMEGLLAPHRPKEPAWFLATVGVSPDHQGKGLGSAVVLPGVEAAERAGVPAFLETSAPRNLPFYERLGFTVTADVEVPEGPRTWCMTRKPGA
B3: 030917-Z01 (protein)
chain: MALPVTALLLPLALLLHAARPEIVLTQSPGTLSLSPGERATLSCRASSSVPYIHWYQQKPGQAPRLLIYATSALASGIPDRFSGSGSGTDFTLTISRLEPEDFAVYYCQQWLSNPPTFGQGTKLELKRLEDLKNVFPPEVAVFEPSKAEIAHTQKATLVCLATGFYPDHVELSWWVNGKEVHSGVCTDPQPLKEQPALNDSRYCLSSRLRVSATFWQNPRNHFRCQVQFYGLSENDEWTQDRAKPVTQIVSAEAWGRADCGITSASYHQGVLSATILYEILLGKATLYAVLVSALVLMAMVKRKDSRGRAKRSGSGATNFSLLKQAGDVEENPGPTSMDWIWRILFLVGAATGAHSFEEVQLVQSGAEVKKPGESLKLSCKGSGRTFTSYNMHWVRQMPGKGLEWMGAIYPLTGDTSYNQKSKLQVTISADKSISTAYLQWSSLKASDTAMYYCARSTYVGGDWQFDVWGKGTTVTVSSTRIQNPDPAVYQLRDSKSSDKSVCLFTDFDSQTNVSQSKDSDVYITDKCVLDMRSMDFKSNSAVAWSNKSDFACANAFNNSIIPEDTFFPSSDVPCDVKLVEKSFETDTNLNFQNLSVIGFRILLLKVAGFNLLMTLRLWSSRAKRSGSGVKQTLNFDLLKLAGDVESNPGPSRGHMTEYKPTVRLATRDDVPRAVRTLAAAFADYPATRHTVDPDRHIERVTELQELFLTRVGLDIGKVWVADDGAAVAVWTTPESVEAGAVFAEIGPRMAELSGSRLAAQQQMEGLLAPHRPKEPAWFLATVGVSPDHQGKGLGSAVVLPGVEAAERAGVPAFLETSAPRNLPFYERLGFTVTADVEVPEGPRTWCMTRKPGA
B4: 041417-B06 (protein)
chain: MALPVTALLLPLALLLHAARPEVQLQQSGPGLVKPSQTLSLTCAISGDSVLSNSDTWNWIRQSPSRGLEWLGRTYHRSTWYDDYASSVRGRVSINVDTSKNQYSLQLNAVTPEDTGVYYCARDRLQDGNSWSDAFDVWGQGTMVTVSSLEIQNPDPAVYQLRDSKSSDKSVCLFTDFDSQTNVSQSKDSDVYITDKCVLDMRSMDFKSNSAVAWSNKSDFACANAFNNSIIPEDTFFPSSDVPCDVKLVEKSFETDTNLNFQNLSVIGFRILLLKVAGFNLLMTLRLWSSRAKRSGSGVKQTLNFDLLKLAGDVESNPGPTSMDWIWRILFLVGAATGAHSFEQSALTQPASVSGSPGQSITISCTGTSSDVGGYNYVSWYQQHPGKAPKLMIYDVSNRPSGVSNRFSGSKSGNTASLTISGLQAEDEADYYCSSYTSSSTLVYVFGTGTKVTVLTREDLKNVFPPEVAVFEPSKAEIAHTQKATLVCLATGFYPDHVELSWWVNGKEVHSGVCTDPQPLKEQPALNDSRYCLSSRLRVSATFWQNPRNHFRCQVQFYGLSENDEWTQDRAKPVTQIVSAEAWGRADCGITSASYHQGVLSATILYEILLGKATLYAVLVSALVLMAMVKRKDSRGRAKRSGSGATNFSLLKQAGDVEENPGPSRGHMTEYKPTVRLATRDDVPRAVRTLAAAFADYPATRHTVDPDRHIERVTELQELFLTRVGLDIGKVWVADDGAAVAVWTTPESVEAGAVFAEIGPRMAELSGSRLAAQQQMEGLLAPHRPKEPAWFLATVGVSPDHQGKGLGSAVVLPGVEAAERAGVPAFLETSAPRNLPFYERLGFTVTADVEVPEGPRTWCMTRKPGA
B5: 102715-E07 (protein)
chain: MALPVTALLLPLALLLHAARPDIQMTQSPSSLSASVGDRVTITCRASQTIWSYLNWYQQRPGKAPNLLIYAASSLQSGVPSRFSGRGSGTDFTLTISSLQAEDFATYYCQQSYSIPQIFGQGTKLEIKLEGKPIPNPLLGLDSTGSGEDLKNVFPPEVAVFEPSKAEIAHTQKATLVCLATGFYPDHVELSWWVNGKEVHSGVCTDPQPLKEQPALNDSRYCLSSRLRVSATFWQNPRNHFRCQVQFYGLSENDEWTQDRAKPVTQIVSAEAWGRADCGITSASYHQGVLSATILYEILLGKATLYAVLVSALVLMAMVKRKDSRGRAKRSGSGATNFSLLKQAGDVEENPGPTSMDWIWRILFLVGAATGAHSFEQVQLQQSGPGLVKPSQTLSLTCAISGDSVSSNSAAWNWIRQSPSRGLEWLGRTYYRSKWYNDYAVSVKSRITINPDTSKNQFSLQLNSVTPEDTAVYYCAREVTGDLEDAFDIWGQGTMVTVSSTREQKLISEEDGSGIQNPDPAVYQLRDSKSSDKSVCLFTDFDSQTNVSQSKDSDVYITDKCVLDMRSMDFKSNSAVAWSNKSDFACANAFNNSIIPEDTFFPSSDVPCDVKLVEKSFETDTNLNFQNLSVIGFRILLLKVAGFNLLMTLRLWSSRAKRSGSGVKQTLNFDLLKLAGDVESNPGPSRGHMTEYKPTVRLATRDDVPRAVRTLAAAFADYPATRHTVDPDRHIERVTELQELFLTRVGLDIGKVWVADDGAAVAVWTTPESVEAGAVFAEIGPRMAELSGSRLAAQQQMEGLLAPHRPKEPAWFLATVGVSPDHQGKGLGSAVVLPGVEAAERAGVPAFLETSAPRNLPFYERLGFTVTADVEVPEGPRTWCMTRKPGA
modifications: Synthetic Immune Receptor (SIR)
B6: 031517-W03 (protein)
chain: MALPVTALLLPLALLLHAARPLEGKPIPNPLLGLDSTGSGEDLKNVFPPEVAVFEPSKAEIAHTQKATLVCLATGFYPDHVELSWWVNGKEVHSGVCTDPQPLKEQPALNDSRYCLSSRLRVSATFWQNPRNHFRCQVQFYGLSENDEWTQDRAKPVTQIVSAEAWGRADCGITSASYHQGVLSATILYEILLGKATLYAVLVSALVLMAMVKRKDSRGRAKRSGSGATNFSLLKQAGDVEENPGPTSMALPVTALLLPLALLLHAARPEIVLTQSPSSLSASVGDRVTITCRASSSLSFMHWYQQKPGKAPKPWIYATSNLASGVPSRFSGSGSGTDYTLTISSLQPEDFATYFCHQWSSNPLTFGGGTKVEIKGGGGSGGGGSGGGGSQVQLVQSGAEVKKPGASVKVSCKASGYTFTSYNMHWVRQAPGQRLEWIGAIYPGNGDTSYNQKFKGRVTVTRDTSANTAYMELSSLKSEDTAVYYCARSHYGSNYVDYFDYWGQGTLVTVSSTREQKLISEEDGSGIQNPDPAVYQLRDSKSSDKSVCLFTDFDSQTNVSQSKDSDVYITDKCVLDMRSMDFKSNSAVAWSNKSDFACANAFNNSIIPEDTFFPSSDVPCDVKLVEKSFETDTNLNFQNLSVIGFRILLLKVAGFNLLMTLRLWSSRAKRSGSGVKQTLNFDLLKLAGDVESNPGPSRGHMTEYKPTVRLATRDDVPRAVRTLAAAFADYPATRHTVDPDRHIERVTELQELFLTRVGLDIGKVWVADDGAAVAVWTTPESVEAGAVFAEIGPRMAELSGSRLAAQQQMEGLLAPHRPKEPAWFLATVGVSPDHQGKGLGSAVVLPGVEAAERAGVPAFLETSAPRNLPFYERLGFTVTADVEVPEGPRTWCMTRKPGA

System: target antigen-expressing cell line
Assay: Jurkat NFAT-GFP assay, coculture with target cell lines expressing the respective target antigen (summary Table 10A)
Assay type: cell-based, human
Set-up: key: The signs +/−, +, 2+ etc. after the name of the cell lines indicate the relative degree of positivity on the Jurkat-NFAT-GFP assay as measured by the % GFP positive cells; +: relative degree of positivity on the Jurkat-NFAT-GFP assay as measured by the % GFP positive cells; 2+: relative degree of positivity on the Jurkat-NFAT-GFP assay as measured by the % GFP positive cells
Conditions: relative % GFP positive cells; for NFAT-GFP ASSAY Positive Cell lines: NALM6: SIR-expressing Jurkat-NFAT-GFP cells cocultured with NALM6; for NFAT-GFP ASSAY Positive Cell lines: RAJI: SIR-expressing Jurkat-NFAT-GFP cells cocultured with RAJI
Summary of the method: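 Stable SIR expression in Jurkat-NFAT-GFP cells by lentiviral transfer and puromycin selection; coculture with target cells (E:T approximately 1:2) for 4 to 18 hours; flow cytometric measurement of NFAT-driven GFP; scoring as positive when % GFP-positive cells exceeds that of parental reporter cells.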

Row | Molecule | NFAT-GFP ASSAY Positive Cell lines: NALM6 | NFAT-GFP ASSAY Positive Cell lines: RAJI
1 | B1 | (+) | 
2 | B2 | (+/−) | 
3 | B3 | (+/−) | RAJI (2+), NALM6
4 | B4 |  | RAJI (+/−)
5 | B5 |  | RAJI (+)
6 | B6 |  | RAJI (+/−)

From US12269859B2, “Synthetic immune receptors and methods of use thereof” (Angeles Therapeutics, Inc., priority 2016, dated 2025)
